Data set [1] relates to Xenopus GDF5 with a T7 epitope tag (GDF5-T7).
Data set [2] addresses Xenopus GDF5 (wild type, full-length open reading frame expressed from injected mRNA) (Xenopus). Put plainly: cell-based or functional assay.

This note sets out measurements from patent US20080199443A1.

Chain of Xenopus Furin (P29119 whole entry): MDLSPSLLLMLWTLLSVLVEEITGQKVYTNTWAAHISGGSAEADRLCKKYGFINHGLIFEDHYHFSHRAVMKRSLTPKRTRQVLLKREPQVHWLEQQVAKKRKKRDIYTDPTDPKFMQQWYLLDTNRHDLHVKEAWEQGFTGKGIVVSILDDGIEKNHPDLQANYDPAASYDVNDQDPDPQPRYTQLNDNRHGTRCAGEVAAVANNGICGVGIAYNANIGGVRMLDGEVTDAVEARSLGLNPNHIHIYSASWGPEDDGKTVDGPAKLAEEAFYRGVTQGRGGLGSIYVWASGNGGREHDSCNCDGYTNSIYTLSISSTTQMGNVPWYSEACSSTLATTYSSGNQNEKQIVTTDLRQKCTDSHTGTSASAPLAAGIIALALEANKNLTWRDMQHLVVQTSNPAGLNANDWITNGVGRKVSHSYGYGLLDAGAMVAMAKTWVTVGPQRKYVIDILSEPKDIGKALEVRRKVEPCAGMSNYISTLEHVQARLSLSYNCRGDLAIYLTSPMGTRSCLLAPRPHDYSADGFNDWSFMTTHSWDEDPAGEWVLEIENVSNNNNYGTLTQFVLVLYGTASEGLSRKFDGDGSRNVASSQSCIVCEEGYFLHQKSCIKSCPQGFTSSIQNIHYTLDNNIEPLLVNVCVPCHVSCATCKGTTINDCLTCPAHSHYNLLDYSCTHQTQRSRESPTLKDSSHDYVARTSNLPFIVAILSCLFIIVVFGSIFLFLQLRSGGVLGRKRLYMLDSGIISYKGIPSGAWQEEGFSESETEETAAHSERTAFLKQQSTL

Xenopus Furin: the “proteolytic processing to the mature peptide; anti-T7 immunoblot of Xenopus oocyte supernatants” value in data set [1] is “XGDF5 and Vg1 mature peptides could be detected only when mRNAs encoding both Furin and SPC6 were co-injected with the growth factor messages”.
In data set [2], Xenopus Furin (enzyme) returned an Average DAI (Dorso-Anterior Index), ventralization of Xenopus embryos after co-injection of mRNAs of 4.8 DAI; an Average DAI, ventralization of Xenopus embryos; GDF5 mRNA co-injected with Furin and SPC6 mRNAs together of 2.4 DAI.
In data set [2], Xenopus SPC4 (enzyme) showed an Average DAI (Dorso-Anterior Index), ventralization of Xenopus embryos after co-injection of mRNAs of 4.8 DAI.
In the case of Xenopus SPC6A, the “proteolytic processing to the mature peptide; anti-T7 immunoblot of Xenopus oocyte supernatants” value in data set [1] is “XGDF5 and Vg1 mature peptides could be detected only when mRNAs encoding both Furin and SPC6 were co-injected with the growth factor messages”.
In data set [2], Xenopus SPC6A (enzyme) had an Average DAI (Dorso-Anterior Index), ventralization of Xenopus embryos after co-injection of mRNAs of 4.9 DAI; an Average DAI, ventralization of Xenopus embryos; GDF5 mRNA co-injected with Furin and SPC6 mRNAs together of 2.4 DAI.
